Legend:
[1] = biological target: monkey 4-1BB-his protein (monkey); experiment: ELISA, coated monkey 4-1BB-his; Ab 2 ug/ml
[2] = biological target: monkey 4-1BB-his protein (monkey); experiment: ELISA, coated monkey 4-1BB-his; Ab 10 ug/ml
[3] = biological target: monkey 4-1BB-his protein (monkey); experiment: ELISA, coated monkey 4-1BB-his; Ab 0.4 ug/ml
[4] = biological target: monkey 4-1BB-his protein (monkey); experiment: ELISA, coated monkey 4-1BB-his; Ab 0.08 ug/ml
[5] = biological target: monkey 4-1BB-his protein (monkey); experiment: ELISA, coated monkey 4-1BB-his; Ab 0.016 ug/ml
[6] = biological target: monkey 4-1BB-his protein (monkey); experiment: ELISA, coated monkey 4-1BB-his; Ab 0.0001 ug/ml
[7] = biological target: monkey 4-1BB-his protein (monkey); experiment: ELISA, coated monkey 4-1BB-his; Ab 0.0006 ug/ml
[8] = biological target: monkey 4-1BB-his protein (monkey); experiment: ELISA, coated monkey 4-1BB-his; Ab 0.0032 ug/ml
GITR = experiment: ELISA, coated GITR; Ab concentration not given
Sequence of GITR (Q9Y5U5 26-162): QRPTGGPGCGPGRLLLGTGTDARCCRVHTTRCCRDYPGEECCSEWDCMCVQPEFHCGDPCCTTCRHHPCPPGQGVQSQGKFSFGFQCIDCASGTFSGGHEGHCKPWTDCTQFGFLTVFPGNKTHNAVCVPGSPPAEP

OX40 = experiment: ELISA, coated OX40; Ab concentration not given
Sequence of OX40 (P43489 29-214): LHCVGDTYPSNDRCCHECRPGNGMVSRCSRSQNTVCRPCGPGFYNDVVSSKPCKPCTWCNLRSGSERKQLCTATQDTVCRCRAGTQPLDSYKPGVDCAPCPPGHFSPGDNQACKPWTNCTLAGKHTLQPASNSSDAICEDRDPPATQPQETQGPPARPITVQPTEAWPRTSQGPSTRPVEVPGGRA

[9] = biological target: hFc-tagged human 4-1BB extracellular domain protein (4-1BB-hFc) (human) (UniProt Q07011); experiment: ELISA, coated 4-1BB; Ab concentration not given
Sequence of hFc-tagged human 4-1BB extracellular domain protein (4-1BB-hFc) (human) (Q07011 24-186 limits assumed): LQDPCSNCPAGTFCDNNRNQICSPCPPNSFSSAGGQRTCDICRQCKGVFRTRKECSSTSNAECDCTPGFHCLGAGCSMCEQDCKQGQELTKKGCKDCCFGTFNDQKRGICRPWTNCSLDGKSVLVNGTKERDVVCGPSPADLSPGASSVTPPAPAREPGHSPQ

IgG control (human IgG) (antibody)
OD450 nm [1]: 0.07 OD450 nm | OD450 nm [2]: 0.07 OD450 nm | OD450 nm [3]: 0.07 OD450 nm | OD450 nm [4]: 0.07 OD450 nm | OD450 nm [5]: 0.07 OD450 nm | OD450 nm [6]: 0.07 OD450 nm | OD450 nm [7]: 0.07 OD450 nm | OD450 nm [8]: 0.07 OD450 nm | OD450 nm (GITR): 0.24 OD450 nm | OD450 nm (OX40): 0.32 OD450 nm | OD450 nm [9]: 0.36 OD450 nm

Reference: US20200347144A1
